Results as given in paper PMC12872393, “NCOA4 initiates ferritinophagy by avidly binding GATE16 using two short linear interaction motifs” (Life Science Alliance, 2026).

Target: (GST-GATE16)2 (UniProt P60520)
Assay: SEC-MALS; 100 μl of 1 mg/ml protein on a WTC-030 column; 20 mM Tris, 150 mM NaCl, pH 7.5; 0.5 ml/min

“(GST-GATE16)2 (from UniProt P60520 1-117) (natural protein)” gave a stoichiometry N of 2.
